# Test results reported in the nanobody polyreactivity screen of Harvey et al. (2022).
# Assay: yeast display, Sf9 membrane polyspecificity reagent, FACS + sequencing; frameworks hold sequencing errors
# Procedure, shortened: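 A nanobody's polyreactivity label depends on the gate it was sorted from. Yeast display cells were stained with 10% biotinylated, detergent-solubilized Sf9 membrane reagent for 1 hour at 4 °C, enriched on streptavidin microbeads and sorted by FACS. The low and high (top ~1%) gates were set on anti-HA fluorescence for expression and streptavidin fluorescence for reagent binding.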
row,Sequence,polyreactivity (PSR sort gate)
1,QVQLVESGGGLVQAGGSLRLSCAASGRIFGYYAMGWYRQAPGKERELVAAISYSGGSTYYADSVKGRFTISRDNAKYTVFLQMNSLKPEDTAVYYCNKVYSIRGYWGQGTQVTVSS,high polyreactivity
2,QVQLVESGGGLVQAGGSLRLSCAASGRIFGYYAMGWYRQAPGKERELVAAITRGGSTNYADSVKGRFTISRDNAKNTVYLQMNSLKPEDTAVYYCNARRYRPGSASYDYWGQGTQVTVSS,high polyreactivity
3,QVQLVESGGGLVQAGGSLRLSCAASGRIFGYYAMGWYRQAPGKERELVAAITSGGRTYYADSVKGRFTISRDNAKNTVFLQMNSLKPEDTAVNYCAAVRALRKVRDYYYWGQGTQVTVSS,high polyreactivity
4,QVQLVESGGGLVQAGGSLRLSCAASGRIFGYYAMGWYRQAPGKERELVATITFGGGSTYYADSVKGRFTISRDNAKNTVYLQMNSLIPEDSAVYYCAADSGYLGIYGDEYSWGQGTQVTVSS,low polyreactivity
5,QVQLVESGGGLVQAGGSLRLSCAASGRIFGYYAMVCYRQAPGKERELVAAISSGGGSTYYADSVKGRFTISRDNAKNTVYLQMNSLKPEDTAVYYCIVAYRWSTRYDYWGQGTQVTVSS,high polyreactivity
6,QVQLVESGGGLVQAGGSLRLSCAASGRIFGYYVMGWYRQAPGKERELVAAIRSSADSTYYADSVKGRFTISRDNAKNTVYFQMNSLKPEDTAVYYCAAQSPAYYTKSYWGQGTQVTVSS,low polyreactivity
7,QVQLVESGGGLVQAGGSLRLSCAASGRIFHGNAMGWYRQAPGKERELVARISSSGGGTYYADSVKGRFTISRDNAKNTVYLQMNSLKPEDTAVYYCAARRPDHTEVSNLRYDSWGQGTQVTVSS,low polyreactivity
8,QVQLVESGGGLVQAGGSLRLSCAASGRIFHGYAMGWYRQAPGKDRELVAVIRSGVNTNYADSVKGRFTISRDNAKNTVYLQMNSLKPADTAVYYCAVDYTPEDWGDDYWGQGTHVTVSS,low polyreactivity
9,QVQLVESGGGLVQAGGSLRLSCAASGRIFHHNAMVSYRQAPGKEMELVATITWSGGRTYYADSVKGRFTISRDNAKNTVYLQMNSLKPEDTAVYYCAASSYSYYGYRSYQSTYYYWGQGTQVTVSS,low polyreactivity
10,QVQLVESGGGLVQAGGSLRLSCAASGRIFHHNVMGWYRPAPGKERELVAAISQSGGSTYYADSVKGRFTISRDNAKYTVYVQMNSLKPEDTAVYYCNAGAAGRRYNYWGQGTQVTVSS,low polyreactivity
11,QVQLVESGGGLVQAGGSLRLSCAASGRIFHIYAMGWYRQAPGKERELVAAIRSSGGSTYYADSVKGRFTISRDNAKNTVYLQMNSLKPEDTAVYYCAVDYGNPVYWDEMYYWGQGTQVTVSS,low polyreactivity
12,QVQLVESGGGLVQAGGSLRLSCAASGRIFHRYAMGWYRQAPGKEREFVAAISSRGGSTYYADSLKGRFTISRDTAKNTVDFQINSLKPEETAVYYCAAQIGYRSGEFYYWGQGTQVTVSS,high polyreactivity
13,QVQLVESGGGLVQAGGSLRLSCAASGRIFHTYAMGWYIQAPGKERELVAAISRSGGSTYYADSVKGRFTISRDNAKNTVYLQMNSLKPEDTAVYYCAADIRGPYGNRYKFYYWGQGTQVTVSS,high polyreactivity
14,QVQLVESGGGLVQAGGSLRLSCAASGRIFHYAMGWYRQAPGKERELVAGISKRGGSTYYADSVKGRFTISRDNAKNTVYLQMNSLKPEDTAVYYCAAGRAYDGTKHDYWGQGSQVTVSS,high polyreactivity
15,QVQLVESGGGLVQAGGSLRLSCAASGRIFHYNAMGWYRQAPGKERELVAAISTGGSTNYADSVKGRFTISRDNAKNTFYLQMYSLKPEDTAVYYCAADHPVTYPTSKFDFWGQGTQVTVSS,low polyreactivity
16,QVQLVESGGGLVQAGGSLRLSCAASGRIFHYYAMGWYRQAPGKERELVAAISWSGGSTYYADSVKGRFTISRDNAKNTVYLQMNSLKPEETAVYYCAARYVKTKGSFVVGYGYWGQGTQVTLSS,high polyreactivity

row,Sequence,polyreactivity (PSR sort gate)
1,QVQLVESGGGLVQAGGSLRLSCAASGRIFIANTMGWYRQAPGKERELVAAITQRGDSTYYADSVKGRFTISRDNAKNTVYLQMNSLKPVDTAVYYCAARSFRKYYIRYDYWGQGTQVTVSS,high polyreactivity
2,QVQLVESGGGLVQAGGSLRLSCAASGRIFIAYTMGWYRPAPGKERELVAAITWNGGSTYYADSVKGRFTISRDNAKNTVYLQMNSLKPEDTAVYYWVVVSRPGPKPAREMDYWGQGTQVTVSS,low polyreactivity
3,QVQLVESGGGLVQAGGSLRLSCAASGRIFIDNAMGWYRQAPGKERELVAAISWTGGRTYYADSVKGRFTISRDNAKKTVYLQMNSLKPEDPAVYYCAAKQYTRFGYYYWGQGSQVTVSS,high polyreactivity
4,QVQLVESGGGLVQAGGSLRLSCAASGRIFIEYAMGWYRQAPGKERELVATINSSGGRTYYADSVKGRFTISRDNAKNTVYLQMNSLKPEDTAVYYCAARGSYRGPYNVEYDSWGQGTQVTVSS,low polyreactivity
5,QVQLVESGGGLVQAGGSLRLSCAASGRIFIQYGMVWYRQAPGKERELVAAIRSGDSTNYADSVKGRFTISRDNAKNTVYLQMNSLKPEDTSVYYCARDRPGDYAGYDYWGQGTQVTVSS,low polyreactivity
6,QVQLVESGGGLVQAGGSLRLSCAASGRIFIRDARGWYRPAPGKERELVAALTRGGSTYYADSVKGRFTISRDTAKNTVYLQMNSLKPEDTAVYYCAARVGYPYYYWGQGTQVTVSS,high polyreactivity
7,QVQLVESGGGLVQAGGSLRLSCAASGRIFIRNDMGWYRQAPGKERELVAVITRSGGRTYYADSVKGRFTISRDNAMNTVYLQMNSLKPEDTAVYYCAKRQAFKQAPYEYWGQGSQVTVSS,low polyreactivity
8,QVQLVESGGGLVQAGGSLRLSCAASGRIFISNAMGWYRQAPGKERELVAAITWIGDRTYYADSVKGRFTISRDNAKITVYLQMNSLKPEDTAVYYCNRVTSRVSGRYSYDYWGQGTQVTVSS,high polyreactivity
9,QVQLVESGGGLVQAGGSLRLSCAASGRIFISYTMGWDRQAPGKERELVAGIDSSGTSTYYADSVKGRFTISRDNAKNTVYLQMNSLKPEDTAVYYCNVDGNWKDTSTELDYWGQGTQVTVSS,low polyreactivity
10,QVQLVESGGGLVQAGGSLRLSCAASGRIFITNAMGGYRQAPGKERELVASITVSGDSTYYADSVKGRFTISRDNAKNTVYLQMNSLKPEDTAVYYCAADYYALDKVLGYNYWGQGTQVTVSS,low polyreactivity
11,QVQLVESGGGLVQAGGSLRLSCAASGRIFIYNAMGWYRQAPGKERELVAAISSGGDTYYADSVKGRFTISRDNAKNTVYLQMNSLKPEDSAVYYCAATFVVKGTRFGYWGQGTQVTVSS,high polyreactivity
12,QVQLVESGGGLVQAGGSLRLSCAASGRIFIYYARGWYRQAPGKERELVAAISGGGGRTYYADSVKGRFTISRDNAKNTVYLQMNSLKPEDTAVYYCAAGVYTGQDEYDYWGQGTQVTVSS,low polyreactivity
13,QVQLVESGGGLVQAGGSLRLSCAASGRIFKDNAMGWYRQAPGKERELVATIDSGGDTNYADSVKGRFTISRDNAKNTVYLQMNSLKPEDTAVYYCNTEGFLSAVYAFGYWGQGTQVTVSS,low polyreactivity
14,QVQLVESGGGLVQAGGSLRLSCAASGRIFKFYAMGWYRQAPGKERELVAGITTSGGSTYYADSVKGRFTISRDNAKNTVYLQMNSLKPEDTAVYYCAASRHFARHRGYYFRYDYWGQGTQVTVSS,high polyreactivity
15,QVQLVESGGGLVQAGGSLRLSCAASGRIFKGNAMGWYRQAPGKERELVAAISRNGGSTYYADSVKGRFTISRDNAKNTVSLLMNSLKPEDTAVYYCAAYGYRYTEGGWWRMDYWGQGTEVTVSS,high polyreactivity
16,QVQLVESGGGLVQAGGSLRLSCAASGRIFKGYAMGWYRQAPGKERELVAAITWRGGTTYYADSVKGPFTISRDNAKNTVYLQMNSLKPEDTAVYYCAAANWQRYYYWGQGTQVTVSS,high polyreactivity
